From patent US20120244164A1

What was measured:
[1] = target: cynomolgus c-Met (cynomolgus monkey); assay: competition FACS: 0.5 nM biotinylated HGF on BAF3 cells with cynomolgus c-Met
Human c-Met (human) [2] = target: Human c-Met (human) (UniProt P08581); assay: cell-based or functional assay
Human c-Met (human) [3] = target: Human c-Met (human) (UniProt P08581); assay: competition flow cytometry: 1 nM biotinylated hHGF on A549 cells
[4] = target: recombinant human c-Met/Fc chimera (R&D systems) (human); assay: HGF/c-Met competition Alphascreen: biotinylated hHGF, human c-Met/Fc
Sequence of recombinant human c-Met/Fc chimera (R&D systems) (human) (chain, as listed by the source mutant limits assumed): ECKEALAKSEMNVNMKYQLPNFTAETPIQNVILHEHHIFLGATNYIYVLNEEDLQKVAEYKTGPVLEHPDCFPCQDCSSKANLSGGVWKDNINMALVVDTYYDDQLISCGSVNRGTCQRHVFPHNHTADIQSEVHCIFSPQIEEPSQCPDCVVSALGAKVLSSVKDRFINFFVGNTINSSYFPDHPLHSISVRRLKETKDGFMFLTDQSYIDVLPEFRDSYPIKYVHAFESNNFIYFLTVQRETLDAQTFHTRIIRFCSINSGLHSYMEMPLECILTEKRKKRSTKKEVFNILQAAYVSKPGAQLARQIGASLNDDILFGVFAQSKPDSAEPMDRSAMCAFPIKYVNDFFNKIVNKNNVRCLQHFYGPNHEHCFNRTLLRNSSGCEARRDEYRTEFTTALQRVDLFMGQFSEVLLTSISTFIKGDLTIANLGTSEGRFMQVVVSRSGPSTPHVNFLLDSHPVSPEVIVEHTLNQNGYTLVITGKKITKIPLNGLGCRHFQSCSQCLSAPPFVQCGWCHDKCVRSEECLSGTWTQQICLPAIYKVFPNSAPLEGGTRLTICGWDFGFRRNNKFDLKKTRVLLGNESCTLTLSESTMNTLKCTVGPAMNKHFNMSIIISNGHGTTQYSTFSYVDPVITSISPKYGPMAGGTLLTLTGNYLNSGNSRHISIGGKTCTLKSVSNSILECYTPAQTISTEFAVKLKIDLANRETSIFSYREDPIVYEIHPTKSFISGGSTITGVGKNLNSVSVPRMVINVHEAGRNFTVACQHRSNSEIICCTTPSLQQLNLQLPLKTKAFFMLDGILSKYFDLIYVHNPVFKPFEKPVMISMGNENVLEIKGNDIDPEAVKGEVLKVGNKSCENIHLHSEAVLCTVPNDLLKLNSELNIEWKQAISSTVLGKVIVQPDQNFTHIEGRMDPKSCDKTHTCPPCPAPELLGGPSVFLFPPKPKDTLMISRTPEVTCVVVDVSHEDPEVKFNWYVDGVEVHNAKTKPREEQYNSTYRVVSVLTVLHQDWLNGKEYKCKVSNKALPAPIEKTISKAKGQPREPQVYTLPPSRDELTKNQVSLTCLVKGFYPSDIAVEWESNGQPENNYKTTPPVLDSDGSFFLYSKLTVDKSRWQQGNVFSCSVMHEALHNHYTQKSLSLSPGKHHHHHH

[5] = target: recombinant human c-Met/Fc chimera (R&D systems) (human); assay: HGF/c-Met competition Alphascreen, in absence of HSA
[6] = target: recombinant human c-Met/Fc chimera (R&D systems) (human); assay: HGF/c-Met competition Alphascreen, in presence of 5 uM HSA

Sequence of Human c-Met (human) (P08581 25-1390 limits assumed): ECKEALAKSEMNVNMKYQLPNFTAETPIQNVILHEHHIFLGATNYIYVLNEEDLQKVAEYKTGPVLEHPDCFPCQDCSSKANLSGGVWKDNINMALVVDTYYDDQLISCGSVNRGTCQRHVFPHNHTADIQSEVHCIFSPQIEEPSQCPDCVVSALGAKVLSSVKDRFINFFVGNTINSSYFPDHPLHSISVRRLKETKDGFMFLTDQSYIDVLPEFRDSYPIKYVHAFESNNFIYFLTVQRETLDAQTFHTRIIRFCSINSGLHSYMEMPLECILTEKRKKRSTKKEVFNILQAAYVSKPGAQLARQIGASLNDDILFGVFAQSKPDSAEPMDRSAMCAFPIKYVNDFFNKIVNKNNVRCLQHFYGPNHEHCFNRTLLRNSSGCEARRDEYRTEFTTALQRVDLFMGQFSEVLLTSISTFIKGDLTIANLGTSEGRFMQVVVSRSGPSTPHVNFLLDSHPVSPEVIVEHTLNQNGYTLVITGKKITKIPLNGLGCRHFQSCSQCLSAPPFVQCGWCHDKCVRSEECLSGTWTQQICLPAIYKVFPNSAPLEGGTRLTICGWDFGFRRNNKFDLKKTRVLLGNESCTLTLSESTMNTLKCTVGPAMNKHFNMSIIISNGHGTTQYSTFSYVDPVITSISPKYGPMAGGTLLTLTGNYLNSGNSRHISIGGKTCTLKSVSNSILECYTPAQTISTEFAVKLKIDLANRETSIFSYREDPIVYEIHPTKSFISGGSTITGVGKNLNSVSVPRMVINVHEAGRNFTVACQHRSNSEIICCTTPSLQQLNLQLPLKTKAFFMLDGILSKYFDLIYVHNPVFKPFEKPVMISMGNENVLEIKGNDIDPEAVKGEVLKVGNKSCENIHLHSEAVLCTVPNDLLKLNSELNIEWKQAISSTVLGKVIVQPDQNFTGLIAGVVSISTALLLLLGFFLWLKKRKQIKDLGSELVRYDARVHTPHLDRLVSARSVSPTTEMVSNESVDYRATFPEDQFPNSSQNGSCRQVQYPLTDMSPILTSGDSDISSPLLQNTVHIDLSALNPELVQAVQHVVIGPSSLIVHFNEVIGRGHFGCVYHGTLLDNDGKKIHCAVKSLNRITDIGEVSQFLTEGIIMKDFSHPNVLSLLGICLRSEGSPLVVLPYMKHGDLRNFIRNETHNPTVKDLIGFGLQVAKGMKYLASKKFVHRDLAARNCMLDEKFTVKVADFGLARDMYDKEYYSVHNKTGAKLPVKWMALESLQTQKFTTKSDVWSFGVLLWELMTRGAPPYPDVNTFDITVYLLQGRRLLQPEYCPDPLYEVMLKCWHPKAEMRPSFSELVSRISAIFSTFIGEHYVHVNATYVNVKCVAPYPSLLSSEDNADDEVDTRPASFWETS
Sequence of cynomolgus c-Met (cynomolgus monkey) (A0M8R7 25-1381 S170N/I621T limits assumed): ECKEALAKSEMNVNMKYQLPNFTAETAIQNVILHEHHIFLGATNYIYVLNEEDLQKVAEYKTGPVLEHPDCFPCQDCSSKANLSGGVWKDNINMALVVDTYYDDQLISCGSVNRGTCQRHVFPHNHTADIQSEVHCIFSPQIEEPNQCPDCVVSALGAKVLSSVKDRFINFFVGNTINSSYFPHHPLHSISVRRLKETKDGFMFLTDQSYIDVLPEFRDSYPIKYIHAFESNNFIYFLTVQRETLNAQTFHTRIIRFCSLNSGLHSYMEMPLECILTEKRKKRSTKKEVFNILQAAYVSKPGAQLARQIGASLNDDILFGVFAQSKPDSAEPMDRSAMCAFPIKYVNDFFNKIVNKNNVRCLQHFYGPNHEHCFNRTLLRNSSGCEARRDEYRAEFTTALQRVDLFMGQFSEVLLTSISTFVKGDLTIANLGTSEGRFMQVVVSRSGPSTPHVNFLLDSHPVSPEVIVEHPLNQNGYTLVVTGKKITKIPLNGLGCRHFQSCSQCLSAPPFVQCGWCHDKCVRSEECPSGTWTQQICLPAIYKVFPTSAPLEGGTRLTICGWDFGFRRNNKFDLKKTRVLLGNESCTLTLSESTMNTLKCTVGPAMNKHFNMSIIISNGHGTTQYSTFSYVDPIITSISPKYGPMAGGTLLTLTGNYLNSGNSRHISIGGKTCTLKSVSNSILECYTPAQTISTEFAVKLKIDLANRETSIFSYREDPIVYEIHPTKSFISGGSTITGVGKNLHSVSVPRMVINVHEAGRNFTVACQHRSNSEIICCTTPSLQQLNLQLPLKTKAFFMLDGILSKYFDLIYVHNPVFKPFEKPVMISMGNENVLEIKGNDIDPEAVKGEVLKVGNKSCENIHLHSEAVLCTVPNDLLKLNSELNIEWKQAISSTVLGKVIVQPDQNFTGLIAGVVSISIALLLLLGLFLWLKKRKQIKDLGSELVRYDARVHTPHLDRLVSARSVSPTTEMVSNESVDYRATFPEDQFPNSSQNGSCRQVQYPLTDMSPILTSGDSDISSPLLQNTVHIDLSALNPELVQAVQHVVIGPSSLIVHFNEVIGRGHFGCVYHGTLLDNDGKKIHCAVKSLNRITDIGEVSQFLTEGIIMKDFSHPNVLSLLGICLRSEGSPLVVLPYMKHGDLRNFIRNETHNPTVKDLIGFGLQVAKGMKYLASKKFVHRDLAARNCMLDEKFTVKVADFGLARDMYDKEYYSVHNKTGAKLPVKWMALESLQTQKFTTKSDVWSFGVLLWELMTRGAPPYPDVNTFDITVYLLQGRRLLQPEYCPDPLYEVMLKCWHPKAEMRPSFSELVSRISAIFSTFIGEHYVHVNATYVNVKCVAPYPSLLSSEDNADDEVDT

Row | Substance | IC50 [1] | concentration of maximal c-Met phosphorylation in A549 cells (Human c-Met (human) [2]) | IC50 (Human c-Met (human) [3]) | % inhibition [4] | IC50 [4] | % inhibition of HGF-dependent A549 cell migration (Human c-Met (human) [2]) | % inhibition of HGF-dependent c-Met phosphorylation, A549 cells, experiment 1 (Human c-Met (human) [2]) | % inhibition of HGF-dependent c-Met phosphorylation, A549 cells, experiment 2 (Human c-Met (human) [2]) | % inhibition of HGF-dependent proliferation of BxPC3 cells (Human c-Met (human) [2]) | IC50, HGF-dependent A549 cell migration (Human c-Met (human) [2]) | IC50, HGF-dependent c-Met phosphorylation, A549 cells, experiment 1 (Human c-Met (human) [2]) | IC50, HGF-dependent c-Met phosphorylation, A549 cells, experiment 2 (Human c-Met (human) [2]) | IC50, HGF-dependent proliferation of BxPC3 cells (Human c-Met (human) [2]) | IC50 [5] | IC50 [6]
1 | anti-c-Met antibody 5D5 | 6.7 nM | 37 nM | 2.72 nM |  |  |  |  |  |  |  |  |  |  |  | 
2 | anti-c-Met antibody fragment 5D5 Fab from mAb |  |  | 11.3 nM | 101% | 1.3 nM | 112% | 96.4% | 95.9% | 94.8% | 5.48 nM | 10.4 nM | 9.09 nM | 34.3 nM | 3.2 nM | 3.1 nM
